This is an account of results in patent US20140322759.

What all share (experiment): EMSA
Series [1] concerns the target T1, phi29 DNA polymerase E221K E221K (Bacillus phage phi29) (UniProt P03680).
T1 sequence: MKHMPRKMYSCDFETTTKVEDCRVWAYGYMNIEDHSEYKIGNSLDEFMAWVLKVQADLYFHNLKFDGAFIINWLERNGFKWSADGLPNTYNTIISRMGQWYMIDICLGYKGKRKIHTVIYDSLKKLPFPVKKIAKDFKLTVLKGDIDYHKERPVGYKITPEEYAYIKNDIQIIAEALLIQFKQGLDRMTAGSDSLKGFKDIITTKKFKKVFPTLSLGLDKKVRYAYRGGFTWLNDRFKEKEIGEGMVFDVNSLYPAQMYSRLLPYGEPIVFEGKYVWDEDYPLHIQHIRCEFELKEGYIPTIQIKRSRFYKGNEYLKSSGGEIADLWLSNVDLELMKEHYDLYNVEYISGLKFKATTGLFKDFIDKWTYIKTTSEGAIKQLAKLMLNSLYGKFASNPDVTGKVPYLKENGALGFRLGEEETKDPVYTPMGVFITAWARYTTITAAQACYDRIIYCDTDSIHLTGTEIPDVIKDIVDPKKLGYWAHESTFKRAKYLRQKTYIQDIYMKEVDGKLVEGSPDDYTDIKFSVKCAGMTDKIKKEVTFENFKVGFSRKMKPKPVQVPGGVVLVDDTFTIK
The conditions noted are these: SD 18.4; unit not given (μM in assay); pH 7.9, 66 mM K-acetate, 30 C.

Series [2] addresses T2, phi29 DNA polymerase M97T M97T (Bacillus phage phi29) (UniProt P03680).
T2 sequence: T1 sequence with M97T, K221E
The conditions noted are these: SD 2.5; unit not given (μM in assay); pH 7.9, 66 mM K-acetate, 30 C.

The target in series [3] is T3, phi29 DNA polymerase wild-type (Bacillus phage phi29) (UniProt P03680).
T3 sequence: T1 sequence with K221E
The conditions noted are these: SD 5.7; unit not printed in table (enzyme titrated 0-600 μM, 2 μM DNA as printed); Tris-acetate pH 7.9, 66 mM K-acetate, no Mg listed, 30 C.

Series [4] addresses T4, phi29 DNA polymerase E515A E515A (Bacillus phage phi29) (UniProt P03680).
T4 sequence: T1 sequence with K221E, E515A
The conditions noted are these: SD 56.5; unit not given (μM in assay); pH 7.9, 66 mM K-acetate, 30 C.

Numbering of substitutions follows the chain as printed.

Take “GATCACAGTGAGTAC / TCTATTGTACTCACTGTGATC [15-mer/21-mer primer/template]”: the Kd in series [1] stood at 67 µM; in series [2], 37 µM; in series [3], 76 µM; in series [4], 97 µM.
